Results taken from the supplement of paper PMC10567573.

B1: BTBD1 (parent)
chain: YGSIHGPTDYQVNIQIIEYEKKQT

Variants of: B1
Test: protein stability index of a GFP-peptide fusion (GPS, HEK-293T) (PSI 1-6); higher = more stable
Settings: c terminus: a fixed tail appended
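Further: lentivirally expressed fusions sorted by FACS into six bins by GFP to DsRed ratio, PSI derived from sequencing read proportions per bin multiplied by bin number.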

In order of falling protein stability index:
1. YGSIHGPTDEQVNIQIIEYEKKQT  4.55
2. YGSIHGPTDNQVNIQIIEYEKKQT  4.48
3. YGSIHGPTIYQVNIQIIEYEKKQT  4.42
4. YGSIHGPTDQQVNIQIIEYEKKQT  4.33
5. YGSIHGPTDPQVNIQIIEYEKKQT  4.31
6. YGSIHGPTDDQVNIQIIEYEKKQT  4.3
7. YGSIHGPTDKQVNIQIIEYEKKQT  4.24
8. YGSIHGPTDYQQNIQIIEYEKKQT  4.19
9. YGSIHGPTDSQVNIQIIEYEKKQT  4.16
10. YGSIHGPTDYQNNIQIIEYEKKQT  4.15
11. YGSIHGPTDRQVNIQIIEYEKKQT  4.12
12. YGSIHGPTDTQVNIQIIEYEKKQT  4.1
13. YGSIHGPTDYQHNIQIIEYEKKQT  4.09
14. YGSDHGPTDYQVNIQIIEYEKKQT  4.08
15. YGSIHGPTDYQENIQIIEYEKKQT  4.08
16. YGSIHGWTDYQVNIQIIEYEKKQT  4.06
17. YGSIHGPTDAQVNIQIIEYEKKQT  4.06
18. YGSIHGPTDYQDNIQIIEYEKKQT  4.04
19. YGSIHGPTDYQSNIQIIEYEKKQT  3.98
20. YGSIHGPTDGQVNIQIIEYEKKQT  3.79
21. YGSIHGPTDHQVNIQIIEYEKKQT  3.77
22. YGSIKGPTDYQVNIQIIEYEKKQT  3.72
23. YGSIHGPTDYQTNIQIIEYEKKQT  3.72
24. YGSIEGPTDYQVNIQIIEYEKKQT  3.71
25. YGSIHGPDDYQVNIQIIEYEKKQT  3.66
26. YGSIHGPTDYQRNIQIIEYEKKQT  3.66
27. YGSIHGPTDMQVNIQIIEYEKKQT  3.63
28. YGSIHDPTDYQVNIQIIEYEKKQT  3.61
29. YGSIHGPTDYQANIQIIEYEKKQT  3.6
30. YGSIHEPTDYQVNIQIIEYEKKQT  3.54
31. YGSIHGPTDYDVNIQIIEYEKKQT  3.52
32. YGSIHGPTDYQGNIQIIEYEKKQT  3.52
33. YGSIHGPTDYPVNIQIIEYEKKQT  3.5
34. YGSEHGPTDYQVNIQIIEYEKKQT  3.45
35. YGSIHGPTDYQKNIQIIEYEKKQT  3.44
36. YGSIHNPTDYQVNIQIIEYEKKQT  3.4
37. YGSIHGPTLYQVNIQIIEYEKKQT  3.37
38. YGSIHGPWDYQVNIQIIEYEKKQT  3.36
39. YGQIHGPTDYQVNIQIIEYEKKQT  3.33
40. YGSIHGETDYQVNIQIIEYEKKQT  3.33
41. YGSIAGPTDYQVNIQIIEYEKKQT  3.31
42. YGSIPGPTDYQVNIQIIEYEKKQT  3.29
43. YGSIHGDTDYQVNIQIIEYEKKQT  3.29
44. YGSIHGPTDYQLNIQIIEYEKKQT  3.28
45. YGSISGPTDYQVNIQIIEYEKKQT  3.26
46. YGSIHQPTDYQVNIQIIEYEKKQT  3.26
47. YGSIHTPTDYQVNIQIIEYEKKQT  3.19
48. YGSIHPPTDYQVNIQIIEYEKKQT  3.18
49. YGKIHGPTDYQVNIQIIEYEKKQT  3.17
50. YGSIHSPTDYQVNIQIIEYEKKQT  3.15
51. YGDIHGPTDYQVNIQIIEYEKKQT  3.13
52. YGSIHGPTAYQVNIQIIEYEKKQT  3.12
53. YGSIHGPSDYQVNIQIIEYEKKQT  3.11
54. YGSPHGPTDYQVNIQIIEYEKKQT  3.1
55. YGHIHGPTDYQVNIQIIEYEKKQT  3.09
56. YGSIDGPTDYQVNIQIIEYEKKQT  3.09
57. YGTIHGPTDYQVNIQIIEYEKKQT  3.08
58. YGSIHGPQDYQVNIQIIEYEKKQT  3.08
59. YGPIHGPTDYQVNIQIIEYEKKQT  3.06
60. YGSQHGPTDYQVNIQIIEYEKKQT  3.06
61. YGSIGGPTDYQVNIQIIEYEKKQT  3.06
62. YGEIHGPTDYQVNIQIIEYEKKQT  3
63. YGSIHHPTDYQVNIQIIEYEKKQT  3
64. YGSIHKPTDYQVNIQIIEYEKKQT  3
65. YGSIRGPTDYQVNIQIIEYEKKQT  2.98
66. YGSIHGPPDYQVNIQIIEYEKKQT  2.97
67. YGSIHAPTDYQVNIQIIEYEKKQT  2.96
68. YGSIHGPTDCQVNIQIIEYEKKQT  2.96
69. YGSAHGPTDYQVNIQIIEYEKKQT  2.95
70. YGSIHGPTDYQPNIQIIEYEKKQT  2.95
71. YGLIHGPTDYQVNIQIIEYEKKQT  2.94
72. YGSLHGPTDYQVNIQIIEYEKKQT  2.94
73. YGSYHGPTDYQVNIQIIEYEKKQT  2.94
74. YGSIHGPNDYQVNIQIIEYEKKQT  2.94
75. YGSNHGPTDYQVNIQIIEYEKKQT  2.93
76. YGSIHGPTDYQMNIQIIEYEKKQT  2.93
77. YGGIHGPTDYQVNIQIIEYEKKQT  2.88
78. YGRIHGPTDYQVNIQIIEYEKKQT  2.88
79. YGSILGPTDYQVNIQIIEYEKKQT  2.88
80. YGSIHRPTDYQVNIQIIEYEKKQT  2.88
81. YGSIHGPEDYQVNIQIIEYEKKQT  2.88
82. YGMIHGPTDYQVNIQIIEYEKKQT  2.87
83. YGSIHGGTDYQVNIQIIEYEKKQT  2.87
84. YGSIHGPTDLQVNIQIIEYEKKQT  2.87
85. YGSIHGPTDYQYNIQIIEYEKKQT  2.87
86. YGAIHGPTDYQVNIQIIEYEKKQT  2.85
87. YGSIHMPTDYQVNIQIIEYEKKQT  2.85
88. YGSIHGNTDYQVNIQIIEYEKKQT  2.84
89. YGSIHGPTDYLVNIQIIEYEKKQT  2.83
90. YGSTHGPTDYQVNIQIIEYEKKQT  2.81
91. YGSIHCPTDYQVNIQIIEYEKKQT  2.81
92. YGSHHGPTDYQVNIQIIEYEKKQT  2.79
93. YGSIQGPTDYQVNIQIIEYEKKQT  2.78
94. YGSIHGPTDVQVNIQIIEYEKKQT  2.77
95. YGSIHGPTDYQCNIQIIEYEKKQT  2.77
96. YGSIHGSTDYQVNIQIIEYEKKQT  2.76
97. YGSIMGPTDYQVNIQIIEYEKKQT  2.73
98. YGSIHGTTDYQVNIQIIEYEKKQT  2.73
99. YGSIHGPTDYQINIQIIEYEKKQT  2.72
100. YGSIHWPTDYQVNIQIIEYEKKQT  2.71
101. YGSIHGPADYQVNIQIIEYEKKQT  2.71
102. YGSIHGPTDYQFNIQIIEYEKKQT  2.71
103. YGSIIGPTDYQVNIQIIEYEKKQT  2.67
104. YGSIHGPTDYWVNIQIIEYEKKQT  2.67
105. YGSIHGPTDYEVNIQIIEYEKKQT  2.66
106. YGSIHGHTDYQVNIQIIEYEKKQT  2.65
107. YGSIHGQTDYQVNIQIIEYEKKQT  2.65
108. YGSIHGPTRYQVNIQIIEYEKKQT  2.65
109. YGFIHGPTDYQVNIQIIEYEKKQT  2.64
110. YGSVHGPTDYQVNIQIIEYEKKQT  2.63
111. YGSIHGVTDYQVNIQIIEYEKKQT  2.63
112. YGSIHLPTDYQVNIQIIEYEKKQT  2.6
113. YGSIHGATDYQVNIQIIEYEKKQT  2.6
114. YGVIHGPTDYQVNIQIIEYEKKQT  2.57
115. YGSIHGPRDYQVNIQIIEYEKKQT  2.57
116. YGSIHGPTDYGVNIQIIEYEKKQT  2.57
117. YGSIHGPYDYQVNIQIIEYEKKQT  2.56
118. YGSITGPTDYQVNIQIIEYEKKQT  2.52
119. YGSWHGPTDYQVNIQIIEYEKKQT  2.5
120. YGSIHGKTDYQVNIQIIEYEKKQT  2.49
121. YGSIHGPTDYHVNIQIIEYEKKQT  2.48
122. YGSIHGFTDYQVNIQIIEYEKKQT  2.47
123. YGSSHGPTDYQVNIQIIEYEKKQT  2.45
124. YGSIHYPTDYQVNIQIIEYEKKQT  2.44
125. YGSIHGITDYQVNIQIIEYEKKQT  2.44
126. YGSIHGPGDYQVNIQIIEYEKKQT  2.44
127. YGSIHGPTPYQVNIQIIEYEKKQT  2.44
128. YGSIHGPTDIQVNIQIIEYEKKQT  2.44
129. YGSIHGPTDFQVNIQIIEYEKKQT  2.43
130. YGSIHGPTTYQVNIQIIEYEKKQT  2.42
131. YGSMHGPTDYQVNIQIIEYEKKQT  2.41
132. YGSICGPTDYQVNIQIIEYEKKQT  2.41
133. YGSIHGPTDYNVNIQIIEYEKKQT  2.39
134. YGSIHGPHDYQVNIQIIEYEKKQT  2.38
135. YGSIHGPTDYSVNIQIIEYEKKQT  2.34
136. YGSCHGPTDYQVNIQIIEYEKKQT  2.32
137. YGSIHGPTDYRVNIQIIEYEKKQT  2.32
138. YGSIHGPTDYQWNIQIIEYEKKQT  2.32
139. YGSIHGMTDYQVNIQIIEYEKKQT  2.31
140. YGSIHGPTDYAVNIQIIEYEKKQT  2.26
141. YGSIHGPCDYQVNIQIIEYEKKQT  2.25
142. YGIIHGPTDYQVNIQIIEYEKKQT  2.24
143. YGSKHGPTDYQVNIQIIEYEKKQT  2.24
144. YGSIHGPTVYQVNIQIIEYEKKQT  2.24
145. YGSIHGPTDYYVNIQIIEYEKKQT  2.24
146. YGSIHGPTMYQVNIQIIEYEKKQT  2.23
147. YGSFHGPTDYQVNIQIIEYEKKQT  2.21
148. YGSIHVPTDYQVNIQIIEYEKKQT  2.21
149. YGSIHGLTDYQVNIQIIEYEKKQT  2.21
150. YGSIHGPTQYQVNIQIIEYEKKQT  2.18
151. YGWIHGPTDYQVNIQIIEYEKKQT  2.17
152. YGSIHIPTDYQVNIQIIEYEKKQT  2.17
153. YGSIHGPFDYQVNIQIIEYEKKQT  2.17
154. YGSGHGPTDYQVNIQIIEYEKKQT  2.16
155. YGSIHGPKDYQVNIQIIEYEKKQT  2.16
156. YGYIHGPTDYQVNIQIIEYEKKQT  2.15
157. YGSIHGPTDYKVNIQIIEYEKKQT  2.15
158. YGSINGPTDYQVNIQIIEYEKKQT  2.13
159. YGSIWGPTDYQVNIQIIEYEKKQT  2.09
160. YGSIHGPTYYQVNIQIIEYEKKQT  2.08
161. YGCIHGPTDYQVNIQIIEYEKKQT  2.06
162. YGSIHGPIDYQVNIQIIEYEKKQT  2.06
163. YGSIHGPVDYQVNIQIIEYEKKQT  2.06
164. YGSIHGPTDWQVNIQIIEYEKKQT  2.05
165. YGSIVGPTDYQVNIQIIEYEKKQT  2.04
166. YYSIHGPTDYQVNIQIIEYEKKQT  2.03
167. YGSIHGCTDYQVNIQIIEYEKKQT  2
168. YGSIFGPTDYQVNIQIIEYEKKQT  1.99
169. YGSIYGPTDYQVNIQIIEYEKKQT  1.98
170. YGSIHGPTNYQVNIQIIEYEKKQT  1.98
171. YGSIHGPTEYQVNIQIIEYEKKQT  1.95
172. YGSIHGPTCYQVNIQIIEYEKKQT  1.94
173. YGSRHGPTDYQVNIQIIEYEKKQT  1.93
174. YGSIHGPTDYMVNIQIIEYEKKQT  1.93
175. YGSIHGPLDYQVNIQIIEYEKKQT  1.91
176. YGSIHGPTKYQVNIQIIEYEKKQT  1.82
177. YGSIHGRTDYQVNIQIIEYEKKQT  1.75
178. YGSIHGYTDYQVNIQIIEYEKKQT  1.75
179. YGSIHGPTGYQVNIQIIEYEKKQT  1.75
180. YGSIHGPMDYQVNIQIIEYEKKQT  1.74
181. YGSIHGPTDYIVNIQIIEYEKKQT  1.68
182. YGSIHGPTSYQVNIQIIEYEKKQT  1.65
183. YGSIHFPTDYQVNIQIIEYEKKQT  1.63
184. YGSIHGPTHYQVNIQIIEYEKKQT  1.63
185. YGNIHGPTDYQVNIQIIEYEKKQT  1.6
186. YGSIHGPTDYTVNIQIIEYEKKQT  1.55
187. YGSIHGPTDYCVNIQIIEYEKKQT  1.54
188. YGSIHGPTDYVVNIQIIEYEKKQT  1.42
